In the nanobody polyreactivity screen of Harvey et al. (2022):

Assay: yeast display, Sf9 membrane polyspecificity reagent, FACS + sequencing; frameworks hold sequencing errors
Summary of the method: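 Nanobodies from a synthetic yeast display library (Saccharomyces cerevisiae BJ5465), induced 36–48 hours with galactose, were stained 1 hour at 4 °C with 10% biotinylated, detergent-solubilized Sf9 membrane reagent, enriched on streptavidin microbeads, then FACS-sorted. Anti-HA (expression) and streptavidin (reagent binding) fluorescence set low and high (top ~1%) gates. Polyreactivity labels come from the gate of origin. Genes were colony-PCR amplified, MiSeq 2 × 250 sequenced and filtered by CDR length.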

| Sequence | polyreactivity (PSR sort gate) |
| --- | --- |
| QVQLVESGGGLVQAGGSLRLSCAASGRTFASYAMGWYRQAPVKERELVARISKSGGSTYYADSVKGRFTISRDNAKNTVYLQMNSLKPEDTAVYYCAATRYPYLYRSEVGSDYWGQGTQVNVSS | low polyreactivity |
| QVQLVESGGGLVQAGGSLRLSCAASGRTFASYAMGWYRQATGKERELVAAITGSGGSTYYADSVKGRFTISRDNAKNTVYLQMNSLKPEDTAVYYCNKGPHYPVYLEYIVGYDYWGQGTQVTVSS | low polyreactivity |
| QVQLVESGGGLVQAGGSLRLSCAASGRTFATNAMGWYRQAPGKERELVAAITSRGGSTYYADSVKGRFTISRDNAKNTVYLQMNSLKPEDTAVYYCAAETSPSWYTWVTYDYWGQGTQVTVSS | high polyreactivity |
| QVQLVESGGGLVQAGGSLRLSCAASGRTFATYAMGWYRPAPGKERELVAAISRSGSTTYYADSVKGRFTISRDNAKNTVYLQMNSLKPEDTAVYYCNAKFRKADYDYWGQGTQVTVSS | high polyreactivity |
| QVQLVESGGGLVQAGGSLRLSCAASGRTFAVNAMGWYRQAPGKEREFVARISTRGGGTYYADSVKGRFTISRDNAKNTVYLQMNSLKPEDTAVYYCNAGRTRNYYYYPMDYWGQGTQVTVSS | high polyreactivity |
| QVQLVESGGGLVQAGGSLRLSCAASGRTFAVYAMGWYRQAPGKERELVASIRLSGTRTYYADSVKGRFTISRDNAKNTVYLQMNSLKPEDTAVYYCAAKGTYSRGTFNGYRYDYWGQGTQVTVSS | high polyreactivity |
| QVQLVESGGGLVQAGGSLRLSCAASGRTFAVYAMGWYRQAPGKERELVATINGGGNTNYADSVKGRFTISRDNAKNTVYLQMNSLKPVDTAVYYCAADAWDHWTWFYPTNGMDYWGQGTQVTVSS | low polyreactivity |
| QVQLVESGGGLVQAGGSLRLSCAASGRTFAWNAMGWYRQAPGKERELVAAISSRGTSTYYADSVKGRFTISRDNAKNTVYLQMNSLKPEDTAVYYCAKYTNPASGEYGYWGQGTQVTVSS | high polyreactivity |
| QVQLVESGGGLVQAGGSLRLSCAASGRTFAWYAMGWYRQAPGKERELVAAISSGGSTYYADSVKGRFTISRDNAKKTVYLQMNSLKPDDTAVYYCAAEWHYIYAYDYWRQGTQVTVSS | low polyreactivity |
| QVQLVESGGGLVQAGGSLRLSCAASGRTFAWYAMGWYRQAPGKERELVATITSRGGSTYYADSVKGRFTISRDNAKNTVYLQMNSLKPEDTAVYYCAAQSFWRPHQYDYWGQGTQVTVSS | low polyreactivity |
| QVQLVESGGGLVQAGGSLRLSCAASGRTFAYNTMGWYRQAPGKESELVAAITWSGGGTYYADSVKGRFTISRDNAKNTVYLQMNSLKPEDTAVYYCAVEYASPRARYRYYYWGQGTQVTVSS | high polyreactivity |
| QVQLVESGGGLVQAGGSLRLSCAASGRTFAYYAMGWYIPGPGKERELVAAISSGGSTYYADCVKGRFTISRDNAKNTVYLQMNSLIPEDTAVYYCATRDKQYYYWGQGTQVTVSS | high polyreactivity |
| QVQLVESGGGLVQAGGSLRLSCAASGRTFAYYAMGWYRQAPGKERELVAAIDLSDGTTFYADSVKGRFTISRDNAKNTVYLQMNSLKPEDTSVYYCAAELFNVSYGSDFDYWGQGTQVTVSS | low polyreactivity |
| QVQLVESGGGLVQAGGSLRLSCAASGRTFAYYAMGWYRQAPGKERELVAAISSGGGSTYYADSVKGRFTISRDNAKNTVYLQMNSLKPEDTAVYYCNKGFEYWGQGTQVTVSS | high polyreactivity |
| QVQLVESGGGLVQAGGSLRLSCAASGRTFAYYAMGWYRQAPGKVRELVAAISSGGRTNYADSVKGRFTISRDNAKNTVYLQMNSLKPEDTAVYYCARKAAYQIYNGQYGGFGYGYWGQGTQVTVSS | high polyreactivity |
| QVQLVESGGGLVQAGGSLRLSCAASGRTFCRYAMGWYRQAPGKERELVAAIRSGASTYYADSVKGRFTISPDNGKNTVYLQMKSLIPEDTAVYYCAADIARHLTGFAYYRLDYWGQGTQVTVSS | low polyreactivity |
| QVQLVESGGGLVQAGGSLRLSCAASGRTFCYYAMVWYRRAPGKERELVAAISWSGSRTYYADSVKGRFTISRDNANNSVYLQMTSLKPEDTAVYYCAAGARGLFWEYDYWGQGTQVTVSS | high polyreactivity |
| QVQLVESGGGLVQAGGSLRLSCAASGRTFDAYAMGWYRQAPGKERELVAAISSGGSTNYADSVKGRFTISRDHAKNTVYLQMNSLKPEDTAVYYCAAEYIQYLFYSVRVAYDYWGQGTQVTVSS | low polyreactivity |
| QVQLVESGGGLVQAGGSLRLSCAASGRTFDDYAMGWSRQAPGTERELVAAITSGGSTYYADSVKGRFTISRDNAKNTVYLQMNSLKPEDTAVYYCNARSPRPYAYRPYDYWGQGTQVTVSS | low polyreactivity |
| QVQLVESGGGLVQAGGSLRLSCAASGRTFDGYDMGWYRQAPGQERELVAAINVVGGSTYYADSVKGRFTISRDNAKNTVYLQMNSLKPEDTAVYYCAADDYIYTVYSYTYEYWGQGTQVTVSS | low polyreactivity |
| QVQLVESGGGLVQAGGSLRLSCAASGRTFDIYAMGWYRQAPGKERELVADITWSDGTTYYADSVKRRFTISRDNAKNTVYLQMTSLTPEDTAVYYCNAYTVYAYDYWGQGTQVTVSS | low polyreactivity |
| QVQLVESGGGLVQAGGSLRLSCAASGRTFDLYAMGWYRQAHGKERELVAAIRWSSGNTYYADSVKGRFTISRDNAKNTVYLQMNSLKPEDTAVYYCNDELVPFRFEYWGQGTQVTVSS | low polyreactivity |

| Sequence | polyreactivity (PSR sort gate) |
| --- | --- |
| QVQLVESGGGLVQAGGSLRLSCAASGRTFDLYAMGWYRQAPGKERELVAAISGRGGRTYYADSVKGRFTISRDNAKNTVYLQMNSLKPEDTAVYYCAARTGATSRIRFDYWGQGTQVTVSS | low polyreactivity |
| QVQLVESGGGLVQAGGSLRLSCAASGRTFDLYAMGWYRQAPGKERELVAAITKGGGSTYYADSVKGRFTISRDNAKNTVYLQMNSLKPEDTAVYYCAARFYYPWLYLFDSWGQGTQVTVSS | high polyreactivity |
| QVQLVESGGGLVQAGGSLRLSCAASGRTFDNNAMGWYRQAPGKERELVAAINWSGVRTYYADSVKGRFTISRDNAKNTVYLQMNSLKPEDTAVYYCNTVSASYYYRYNSWGQGTQVTVSS | high polyreactivity |
| QVQLVESGGGLVQAGGSLRLSCAASGRTFDRNAMGWYRQAPGKERELVAAITSRGGRTYYADSVKGRFTISRDNAKNTVYLQMKSLKPEDTAVYYCAADLFSSRVRSNFDYWGQGTQVTVSS | high polyreactivity |
| QVQLVESGGGLVQAGGSLRLSCAASGRTFDRYAMGWYRQAPGKERELVAAISRGGITYYADSVKERFTISRDNAKNTVYLQMNSLKPEDTAVYYCNAVRWADGDYWGQGTQVTVSS | high polyreactivity |
| QVQLVESGGGLVQAGGSLRLSCAASGRTFDRYAMGWYRQAPGKERELVAAISSGTSTNYADSVKGRFTISRDNAKNTVSLQMNSLKPEDTAVYYCNVDSPLQPYRYYYWGQGTQVTVSS | low polyreactivity |
| QVQLVESGGGLVQAGGSLRLSCAASGRTFDRYAMGWYRQAPGKERELVAVIRFIGGSTYYADSVKGRFTISRDNAKNTVYLQMISLKPEDTAVYFCAADATIDWVDYDYWGQGTQVTVSS | low polyreactivity |
| QVQLVESGGGLVQAGGSLRLSCAASGRTFDSYAMGWYRQAPGKERELVAAIYADSVKGRFTISRDNAKNTVYLQMNSLKPEDTAVYYCAARDPSRHARRAYDYWGQGTQVTVSS | low polyreactivity |
| QVQLVESGGGLVQAGGSLRLSCAASGRTFDSYTMGWYRQAPGKERELLADITFTGGSTYYADSVKGRFTISRDNAKNTVYLQMNSLKPEDTAVYYCAAESVAILGLVYPKGYGYWGQGTQVTVSS | low polyreactivity |
| QVQLVESGGGLVQAGGSLRLSCAASGRTFDVYAMGGYRQAPGKERELVATIYYRSARTYYADSVKGRFTISRDNAKNTVYLQMNSLTPEDTAVYYCAAYFETWHGFGYWGQGTQVTVSS | high polyreactivity |
| QVQLVESGGGLVQAGGSLRLSCAASGRTFDVYAMGWYRQAPGKERELVAAISSSGGSTYYADSVKGRFTISRDNAKNTVYLQMNSLKPEDTAVYYCAVYYYSVYQYQAMDYWGQGTQVTVSS | low polyreactivity |
| QVQLVESGGGLVQAGGSLRLSCAASGRTFDYYAMGWYRPAPGKERELVARISWNGGSTRYADSVKGRFTISRDNAKNTVYLQMNSLKPEDTAVYYCKKVPYYAGQHYDYWGRGTQVTVSS | high polyreactivity |
| QVQLVESGGGLVQAGGSLRLSCAASGRTFDYYSMGWYRQAPGKERELVAAIRGSGGSTYYADSVKGRFTISRDNAKNTVSLQMNSLKPEDTAVYYCATDPPYFRTPWEYDYWGQGTQVTVSS | low polyreactivity |
| QVQLVESGGGLVQAGGSLRLSCAASGRTFEGNAMGWYRQAPGKERELVAAISGSGGRTYYADSVKGRFTISRDHAKNTVYLPMNSLKPEHTAVYYATLYSVYNPWRFNYWGQGTQVTVSS | high polyreactivity |
| QVQLVESGGGLVQAGGSLRLSCAASGRTFEIYAMGWYRQEPGKERELVAAITSGGSTYYADSVKGRFTISRDNAKNTVYLQMNSLKPEDTAVYYCNAYLYYDAHGVDYWGQGTQVTVSS | high polyreactivity |
| QVQLVESGGGLVQAGGSLRLSCAASGRTFEPNDMGWYRQAPGKERELVAAISSSDGSTYYADSVKGRFTISRDNAKNTVYLQMNSLKPEDTALYYCAADAGYLYDWPYNYYYWGQGTQVTVSS | low polyreactivity |
| QVQLVESGGGLVQAGGSLRLSCAASGRTFEQNVMGWYRQAPGTERELVAAITTGGSTNYADSVKGRFTISRDNAKNTVYLQMNSLKPEDTAVYYCAADRYLGGDYDYWGQGTQVTVSS | low polyreactivity |
| QVQLVESGGGLVQAGGSLRLSCAASGRTFERYAMGWYRQAPGQERELVAGITGRGGRTYYADSVKGRFTISRDNAKNTVYLQRNSLKPEDTAVYYCNKDTWVIHNYRYDYWGQGTQVTVSS | low polyreactivity |
| QVQLVESGGGLVQAGGSLRLSCAASGRTFEYNAMGWYRQAPGKERELVATIRYSGTSTYADSVKGRFTISRDNAKNTVYFQMNSLKPEDTAVYYCAKQVRYYGYKYNYWGQGTQVTVSS | high polyreactivity |
| QVQLVESGGGLVQAGGSLRLSCAASGRTFEYNDMGWYRQSPGKERELVAAISWRGTSTYYADSVKGRFTISRDNAKNTVYLQMNSLKPEDTAVYYCAADYSYSFYYAYYWGQGTQVTVSS | high polyreactivity |
| QVQLVESGGGLVQAGGSLRLSCAASGRTFEYNGMGWYSQAPGKEWELVAAITRGGSTYYADSVKGRFTISRDNAKNTVYLQMNSLKPEDTAVYYCAAVVGWSRYKWLEYWGQGTQVTVSS | low polyreactivity |
